Data reported in the DeepSol protein solubility set.

Experiment: soluble on expression in E. coli; label from the status in PepcDB or PDB records

| Sequence | soluble on expression in E. coli |
| --- | --- |
| AVVATDAYVKRTNIFYHASSSRLLAVGHPYYSIKKVNKTVVPKVSGYQYRVFKVVLPDPNKFALPDSSLFDPTTQRLVWACTGLEVGRGQPLGVGVSGHPLLNKYDDVENSGGYGGNPGQDNRVNVGMDYKQTQLCMVGCAPPLGEHWGKGTQSSNTSVQNGDCPPLELITSVIQDGDMVDTGFGAMNFADLQTNKSDVPLDICGTVCKYPDYLQMAADPYGDRLFFYLRKEQMFARHFFNRAGTVGEPVPDDLLVKGGNNRSSVASSIYVHTPSGSLVSSEAQLFNKPYWLQKAQGHNNGICWGNHLSVTVVDTTRSTNMTLCASVSKSATYTNSDYKEYMRHVEEFDLQFIFQLCSITLSAEVMAYIHTMNPSVLEDWNGGSGGKQDPYKDMSFWEVNLKEKFSSELDQFPLGRKFLLQSGY | soluble |
| KERPEISLPSDFEHTIHVGFDAVTGEFTGMPEQWARLLQTSNITKSEQKKNPQAVLDVLEFYNSKKTSNSQKYMSFTDKS | soluble |
| KAKTEDFVKAFQVFDKESTGKVSVGDLRYMLTGLGEKLTDAEVDELLKGVEVDSNGEIDYKKFIEDVLRQ | soluble |
| MSLTTHGKPVLVATDLSARTDRAVDRATQLAGEWGVRLIVLHAIEPDSRLHARPELANQAMREVLADPEADVDILPALDLAPTAIVEAAKSADCGLIVTGVARFNHVGDYFIGTAVDHVVRHATVPVLVVKQRPHNAYRTIVVATDYSSCSRLALLTAAEFFPDAAIHLVHAYHVPYEAWLRSDEVREDVTREAQRELDAFVLDPAIPANVRQRISAKLVYGETHTVLSSTAYELGADLLVLGTHGSGGYFAAVMGRMAESLLRCADIDTLVVREIGSTGSEGHHHHHH | soluble |
| MSLAQKISATPAAGAQMTLAQADGIAFRELSFPEALKRAEVEDKLLFVDCFTTWCGPCKRLSKVVFKDSLVADYFNRHFVNLKMDMEKGEGVELRKKYGVHAYPTLLFINSSGEVVYRLVGAEDAPELLKKVKLGVESGGLSGLKKRYEAGDRDLAFICGYINALSAANREQEAGKVAADFLQGSEQKMLEDEDYFLVFYYYVHDVNSSAFQYAVNHKKEITDKFPRQAASLDRRLLEDWIAGSYAYLKVDESNHCTFDEQGLDAYVAKMKQMNVAEADMIGESLRLSRDGIMKQWDSFVKRGDKILASHTILGDEGHLLQWVNWLNKECADMSLREKAAQWCDKACEELIKKNEEIKKNLPPGAIPAISMVDHKGQLLQVAEKLRKLMQQSEGHHHHHH | soluble |
| MSLTDIRDHRDMLTVHHLNNSRSQRVLWLLEELDTPYEIKRYQRQPDMMAPKELRAVHPLGKSPVITDNGNTIAESGAIIEYIVGTYGNGRLIPPPNTPERLRYTYWLHYAEGSAMPPLLLKLLFSMMPQRAPALVRPLVKMVASGALTGFVDPQLKLHMDYWESELGKAAYFAGDEFTAADIQMSFPLEAAAARGGLDQRYPKAQAWLERIHARPAYNRALEKGGPYEIGKAEGHHHHHH | soluble |
| GSMNDRDFMRYSRQILLDDIALDGQQKLLDSQVLIIGLGGLGTPAALYLAGAGVGTLVLADDDDVHLSNLQRQILFTTEDIDRPKSQVSQQRLTQLNPDIQLTALQQRLTGEALKDAVARADVVLDCTDNMATRQEINAACVALNTPLITASAVGFGGQLMVLTPPWEQGCYRCLWPDNQEPERNCRTAGVVGPVVGVMGTLQALEAIKLLSGIETPAGELRLFDGKSSQWRSLALRRASGCPVCGGSNADPV | soluble |
| MVALAILRVEKLKSFGNVGGSEKHTARLQDTPNADTTKKNIRLIGMEDNSSLEDLVKTKIANTTKHKPRKDAVLCSEMFLSASPEYFRPDDPSRAGEWNHERMVLFAGASRQWLINNYGDKCVRAELHLDEATPHIHAYIVPINDKTKQLSHKEMFGGNGRVGSIKLSKLQDSYASALAPLGIERGVKGSKATHTKVKEYYQAVNSEPLTAVWSNKKLAPQPLESATNYVARIQNDDQFHAINHQLADRAFMQERLERAEQRARASEKERQRLEKEVRSLELKTQQLRDLELLDVAWELGLDYERERWRGHGHIINIDGSKFYDFSPDQQKGGGGAIDLVMHVNQCNFRQAVVWLHERFGEAGVERAAIAHVKNRAADIIQAEPRPQFTPPVENKANWPAVERYLTQQRGIPSDCLQMLQNLGLLYADDQQNAVFVMRDLEGQTSGAFLRGTRGENNSFKGYSKGTKRSDSWFYFGLGGQATDKVAHVLLCSSPIEAVSRAMLEYFVRGNVPPERTLYMAVDNINSLPVERLQNVPNILVTFGKDQSTNAAAQRVLELLPQSQQVLSKAADWNQQLLEYGWQLRRQQYQQQDDELSILEHHHHHH | not soluble |
| MSLQSYADALSAKGYRSFGFDTDMEMDMDMGCTTMRRIEKRKGGDLADSPVDEKAEADVEVTNEISAPYEVPQFPIEQIEKKLQIQRHLNEKQATGPRPVATAAVLATNRESSSSTEGRESAVTMERNDADINFQRVSISGEDTSGVPLEDLERASTLLIEALRLRSHYMAMSDQSFPSTTARFLKTVKLKDRINNLPVKEVSESADVHLRHSPMKITNPWNVEFPNDEDFKIKPLNGVFHIYENDDESSEIKYEYPDMSQFVNDMQVMCNMIADGPLKSFCYRRLCYLSSKYQMHVLLNELRELAAQKAVPHRDFYNTRKVDTHIHAASCMNQKHLLRFIKKTLKNNANEVVTVTNGQQMTLAQVFQSMNLTTYDLTVDMLDVHADRNTFHRFDKFNSKYNPIGESRLREVFLKTDNYLNGKYFAQIIKEVAFDLEESKYQNAELRLSIYGKSPDEWYKLAKWAIDNDVYSSNIRWLIQIPRLFDIFKSNKMMKSFQEILNNIFLPLFEATARPSKHPELHRFLQYVIGFDSVDDESKPENPLFDNDVPRPEEWTYEENPPYAYYIYYMYANMTVLNKFRQSRNMNTFVLRPHCGEAGPVQHLVCGFLMAENISHGLLLRKVPVLQYLYYLTQIGIAMSPLSNNSLFLNYHRNPLPEYLARGLIISLSTDDPLQFHFTKEPLMEEYSIAAQVWKLSSCDMCELARNSVMMSGFPHAIKQQWLGPIYYEDGIMGNDITRTNVPEIRVAYRYETLLDELSNIFKVNQTCSIADMNATEGHHHHHH | soluble |
| MGSDKIHHHHHHMNYFSYLSLEERQNFFYKEPLSFSKNIEKEQLAYALGATLYTPGTKETIAEDIIRKKHVEATSIIFCLEDSISDKEVKFAEQNIVFQIQQISNLVSDNILNQADIPLLFIRVRQPSQMRTIVTELGSAVHCLCGFVFPKFTPVNGKSYIDQLAYINKLYSLSLYGMPILESPEIMYRETRVKSLLQIKDLLDSYRDYILNVRIGATDFSSIFGIRRNKHTPIYHITVVRDCISDIINIFSRATNGYVISGCVWEYFSNDYEEGLIQEVSLDHANGLIGKTVIHPSHIKVVQAMHIVTMEDYLDARSILQHANTYNGVLKSSFANKMNEVKPHYNWARKTILKSNIYGVLHENKQFTDLLITNAKQHV | not soluble |
| MKSFQLVATAASGLEAIVGKEVARLGYDPKVENGKVYFEGDLSAIARANLWLRVADRVKIVVGVFKATTFDELFEKTKALPWEDYLPLDAQFPVAGKSVKSTLYSVPDCQAIVKKAIVNRVSEKYRRSGRLMETGALFKLEVSILKDEVTLTIDTSGAGLHKRGYRLAQGSAPIKETMAAALVLLTSWHPDRPFYDPVCGSGTIPIEAALIGQNIAPGFNREFVSETWDWMPKQVWADARQEAEDLANYDQPLNIIGGDIDARLIEIAKQNAVEAGLGDLITFRQLQVADFQTEDEYGVVVANPPYGERLEDEEAVRQLYREMGIVYKRMPTWSVYVLTSYELFEEVYGKKATKKRKLYNGYLRTDLYQYWGPRKPRPKKED | soluble |
| MGSDKIHHHHHHMIKSISTGRTQQGYFSPVEKQMFGAALLADPDTSSPFSDVLSIAESGCSSSLLQQLTSVTKRFRHLKPEQYLLRQQDQFDSLFVVKKGALKSYRLTPEGEEIVTGFYMEGDVIGAGGLGNHKHFYSVVALEPSSLYEIPFAKLLQQSAMEPIVQQLMLKLLSQEMQADQSLRLIQLKQVKAAIASLILNIANRLTATQITLPMSRVDIANLLGVASETVCREFTRLQKQGLLSVNRKHIVINDLPQLQLAAGGDCY | not soluble |
| ITTKRGEKGKVKINVKAGFDWNTPVKVPEYASGYDWARLANEARLGRYDSPIYTPEELEIIRSGLDTDLYPNIDWRDLMLKSGAPRYYANISFSGGSDNVRYYVSGQYTSEQGRYKTFSSENKYNTNTTYERYNYRANVDMNITKTTVLKVSVGGWLVNRTTPTRSTGDIWEDFAKFTPLSTPRKWSTGQWPRVDGQDTPEYHMTQRGYHTKWESKVETSVKLEQDLKFITPGLKFEGVFAFDTYNENIIKREKKEEVWEAQKYRDENGKLILKRVVNRSPMNQNKEVRGDKRYYFQASLDYNRLFAHAHRVGVFGMVYQEEKTDVNFDSSDLIGSIPRRNLAYSGRFTYAYKDKYLAEFNWGCTGSENFEHGKQFGFFPAVSAGYVISEEAFMKKALPWIDQFKIRASYGEVGNDVLDGRRFPYVSLIDTDDGGSYSFGEFGTNRVQAYRIRTLGTPNLTWEIAKKYDVGVDFSFFNGKISGALDWFLDKRDDIFMQRKHMPLTTGLADQTPMANVGKMKSYGWEGNIGFTQSIGQVNLQLRANFTYQTTDIIDKDEAANELWYKMDKGFQLNQSRGLIALGLFKDQDEIDRSPKQTSNRPILPGDIKYKDVNGDGVINDDDIVPLGYREVPGLQYGVGLSANWRNWNLSVLFQGTGK | not soluble |
| MAHRNTYEAVLHKIQVGSPEDGNGAIRILQLSDLHLEKLSISPDDLYEKLRGEPIDFIALTGDFLDREASIPKLGPYLTALKKLQPAYGMYAVFGNHDYVLQGEPFERLKATLEEHGCIVLQNEMKTITVHGQTVNIIGIDDFYTRRSNMKKAYAGVKDGINIVLTHDPDIVPHMGAYHFDYLLSGHFHGGQIHWPKPYHLAKMSKTLTKRNMIKGYHEWEGKPFYINEGLGQTGVNIRVGSKPEVTLHLLSLPSVAQSETVKAVLEHHHHHH | soluble |
| MEQIVSSLWSDCLNHLQTKVSPIDYSTWLRPLQASFANEELTLYAQNPFVENWVKDKFLTEIIDLARFLSKNEQLKITIRVGNKPTEQNLSASSTNKEELTQDTVHKFKTGLNGRLTFDNFVQGKSNQLAKAVAQQVADNPGESHCNPFSLYGGTGLGKTHLLHAVGNEILKRNPQARVVYIHSERFVQDMVKALKNNTIENFKKFYRSLDVLMIDDIQFFAKKEASQEEFFHTFNSLFERNKQIILASDHFPKNIENIEERIKSRLNWGVSTAIEPPELETRVAILMKKAEERNVELPEEVAFYLGQKLRTNVRELEGAINRVSAWCNFTKRQITIDAVRETLKDLIASYDHLVTIENIQKIVAEYYNIKMADLKSKSRTRSIARPRQMAMALAKELTSHSLPEIGREFGGRDHTTVMHACKTINELRDTDNSIQEDYTNLTRKLSSLEHHHHHH | soluble |
| MAHHHHHHMTEPVRILVRRDEITVDSIMQYFVAVDEEKNKFETLCDLYDTLTIAHAVIFCNTRKKVEQLAKKMRKEKFSVSCMHGDMPQAERDEIMRNFREGKSRVLISTDLWSRGIDVEQVSLVLNYDLPFSREQYIHRIGRTGRMGRKGLAISFVKHDELRLLRDVEQFYATQIEELPANIADQF | not soluble |
| MGFFVSEGERCMTYCATEVTFPQGITSLETQVMLLQTHQNGMDIVTYSTPFHPVSHIWPDHPADRGILIWQGSEYAVTDCVVGAIEQASGHLYVGNNIPVKREESGWLFVVVHRLGEVIAACQVGDKVQLQVDTQYQASLSRGHSAGHLGYLALNKVLAQGYWRKDAERKDPQGYFDFNSYAQISSDVTPDCSTDVYRLGKTLRKRGLNSDDVLRDLSFIEQKTNEQLAQWLALASPIRLECTGSTLTDSRYWECDLHEANIARIPCGGTHCKGLTAFQSIQVTLKQVDEQHIEAVTCAQPSESELEHHHHHH | soluble |
